One molecule from article PMC11938259, “Heme delivery into soluble guanylyl cyclase requires a heme redox change and is regulated by NO and Hsp90 by distinct mechanisms” (The Journal of Biological Chemistry, 2025) can be followed below.

The target in this test is FlAsH-labeled TC-apo-sGCβ (rat sGCβ(1–385) with a TC motif) (rat, UniProt P20595 1-385, TC motif (CCPGCC) inserted at residue 239 to 244, FlAsH dye bound to the tetra-Cys (TC) motif; heme-free (apo)). Briefly: cell-based or functional assay.
Chain of FlAsH-labeled TC-apo-sGCβ (rat sGCβ(1–385) with a TC motif) (P20595 other isoform, or with tags, fused parts or gaps TC motif (CCPGCC) inserted at residue 239 to 244): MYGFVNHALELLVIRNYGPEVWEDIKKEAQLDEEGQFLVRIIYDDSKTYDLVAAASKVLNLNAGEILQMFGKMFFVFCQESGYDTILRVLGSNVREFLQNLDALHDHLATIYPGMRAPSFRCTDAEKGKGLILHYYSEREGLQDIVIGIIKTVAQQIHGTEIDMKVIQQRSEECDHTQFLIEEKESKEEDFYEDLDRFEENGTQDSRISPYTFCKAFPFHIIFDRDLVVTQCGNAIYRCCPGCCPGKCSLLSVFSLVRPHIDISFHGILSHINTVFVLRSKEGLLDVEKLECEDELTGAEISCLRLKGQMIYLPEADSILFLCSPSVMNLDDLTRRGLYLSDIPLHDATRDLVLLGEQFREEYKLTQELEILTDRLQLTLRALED

B1: glyceraldehyde 3-phosphate dehydrogenase (GAPDH), human (enzyme)
chain: not shown
Turning to B1, the “heme transfer (FlAsH fluorescence kinetics) from the GAPDH–heme complex to a preformed complex of GAPDH bound on FlAsH-TC-apo-sGCβ, against FlAsH-TC-apo-sGCβ alone (Fig. S4)” value was found to be 5 fold slower.
